Test in all cases: fluorescence anisotropy
Series [1] has as its target MYCN FL (UniProt P04198 1-464).
For series [2], the target named is MYCN 1-154 dMBII (UniProt P04198 1-154, del111-134).
In series [3] the target is MYCN 1-154 (UniProt P04198 1-154).

Broadly, the Kd is the equilibrium constant for the complex coming apart.

B1: UGhigh RNA (ssRNA)
RNA: UGCUGGGAUGGUCAUGGUGGGUGACCCUGGGAUGGCCGCGGUGGGUGACCCUGGAAUGGU
For B1, the Kd in series [1] came out at 175 nM. For the same molecule, the binding result in series [2] is on record as “binds”.

B2: 62 RNA (ssRNA)
RNA: UGGGCCUGGAAUAGUGGGGGCCCAGGGGAAGCUGCGAUGUGCUUCUGAGUGUUUGGAACGAG
B2: in series [3], the binding result is “binds”.

B3: UGlow RNA (ssRNA)
RNA: ACAGUCCAGUCGCAGCAGACUCCCUCACAGCACCCACCUCUCCCACAAUCGGAUCCCAGG
Molecule B3 had a Kd in series [1] of 511 nM.

Source of the values: publication doi:10.1101/2023.08.16.553474.
